Measured values reported in the Human Domainome abundance scans (Beltran et al. 2025).
± gives the uncertainty stated by the source.

B1: Zinc finger homeobox protein 3, residues 2643 to 2698; numbered along this chain, Q15911 (parent)
chain: RLRTTITPEQLEILYQKYLLDSNPTRKMLDHIAHEVGLKKRVVQVWFQNTRARERK

Variants of: B1
Experiment: abundance fitness (aPCA) (normalised: wild type 0, dead -1); higher = more abundant; growth selection in yeast, the domain comes from the species named
Details: Homo sapiens
In the case of RLRTTITPEQLHILYQKYLLDSNPTRKMLDHIAHEVGLKKRVVQVWFQNTRARERK [E12H], the abundance fitness is reported as -0.069 ± 0.16. RLRTTITPEQLCILYQKYLLDSNPTRKMLDHIAHEVGLKKRVVQVWFQNTRARERK [E12C] showed an abundance fitness of -0.111 ± 0.11. RLRTTITPEQLGILYQKYLLDSNPTRKMLDHIAHEVGLKKRVVQVWFQNTRARERK [E12G] showed an abundance fitness of -0.228 ± 0.077. RLRTTITPEQLEILYQKYLLDSNPTRKMCDHIAHEVGLKKRVVQVWFQNTRARERK [L29C] showed an abundance fitness of -0.056 ± 0.11. In the case of RLRTTITPEQLEILYQKYLLDSNPTRKMEDHIAHEVGLKKRVVQVWFQNTRARERK [L29E], the abundance fitness is reported as -0.159 ± 0.14. In the case of RLRTTITTEQLEILYQKYLLDSNPTRKMLDHIAHEVGLKKRVVQVWFQNTRARERK [P8T], the abundance fitness is reported as -0.116 ± 0.16. RLRTTITPEQLEILYQKYLLDSNPTRKMLDHIASEVGLKKRVVQVWFQNTRARERK [H34S] gave an abundance fitness of 0.009 ± 0.089. For RLRTTITPEQLEILYQKYLLDSNPTRKMLDHIAEEVGLKKRVVQVWFQNTRARERK [H34E], the abundance fitness was 0.099 ± 0.16. With RLRTTITPEQLEILYQKYLLDSNPTRKMLDMIAHEVGLKKRVVQVWFQNTRARERK [H31M] the abundance fitness was 0.073 ± 0.12. With RLRTTITPEQLEILYQKYLLDSNPTRKMLDHIAHEVGLKKRDVQVWFQNTRARERK [V42D] the abundance fitness was 0.226 ± 0.13. RLRTTITPEQLEILYQKYLLDSNPTRKMLDHIAHEVGLKKREVQVWFQNTRARERK [V42E] gave an abundance fitness of 0.387 ± 0.095. Work on RLRTTITPEQLEILYQKYLLDSNPTRKMLDHIAHEVGLKKRQVQVWFQNTRARERK [V42Q] yielded an abundance fitness of -0.372 ± 0.14. Work on RLRTTITPEQLEILYQKYLLDSNPTRKMLDHIAHEVGLKKRHVQVWFQNTRARERK [V42H] yielded an abundance fitness of -0.288 ± 0.17. With RLRTTITPEQLEVLYQKYLLDSNPTRKMLDHIAHEVGLKKRVVQVWFQNTRARERK [I13V] the abundance fitness was 0.057 ± 0.088. For RLRTTITPEQLEILYQKYLLDSNPTRKMLDHIAHEKGLKKRVVQVWFQNTRARERK [V36K], the abundance fitness was -0.985 ± 0.35. With RLRTTITPEQLEILYQKYLLDSNPTRKMLDHIAHEVGLKKRVVQVWFQNTRAREPK [R55P] the abundance fitness was 0.105 ± 0.14. Variant RLRTTITPEQLEILYQKYLLDSNPTRKMLDHIAHEVGLKKRVVQVWFQNTRAREYK [R55Y] has an abundance fitness of 0.113 ± 0.14. In the case of RLRTTITPEQLEILYQKYLLDSNPTRKMLDHIAHEVGLKKRVVQVWFQNTRAREHK [R55H], the abundance fitness is reported as 0.001 ± 0.25. For RLRTTITPEQLEILYQKYLLDSNPTRKMLDHIAHEVGLKKRVVQVWFQNTRIRERK [A52I], the abundance fitness was -0.639 ± 0.18. For RLRTTITPEQLEILYQKYLLDSNPTRKMLDHIAHEVGLKKRVVQVWFQNTRERERK [A52E], the abundance fitness was 0.291 ± 0.12. RLRTIITPEQLEILYQKYLLDSNPTRKMLDHIAHEVGLKKRVVQVWFQNTRARERK [T5I] gave an abundance fitness of -0.165 ± 0.14. RLRTFITPEQLEILYQKYLLDSNPTRKMLDHIAHEVGLKKRVVQVWFQNTRARERK [T5F] gave an abundance fitness of -0.358 ± 0.2. With RLRTTITPEQLEILYQKYLLDMNPTRKMLDHIAHEVGLKKRVVQVWFQNTRARERK [S22M] the abundance fitness was -0.247 ± 0.15. Work on RLRTTITPEQLEILYQKYLLDINPTRKMLDHIAHEVGLKKRVVQVWFQNTRARERK [S22I] yielded an abundance fitness of -0.589 ± 0.15. For RLRTTITPEQLEILYRKYLLDSNPTRKMLDHIAHEVGLKKRVVQVWFQNTRARERK [Q16R], the abundance fitness was -0.174 ± 0.082. For RLRTTITPEQLEILYKKYLLDSNPTRKMLDHIAHEVGLKKRVVQVWFQNTRARERK [Q16K], the abundance fitness was -0.106 ± 0.13. Variant RLRTTITPEQLEILYNKYLLDSNPTRKMLDHIAHEVGLKKRVVQVWFQNTRARERK [Q16N] has an abundance fitness of -0.226 ± 0.21. For RLRTTITPEQLEILYQKYLLDSNPTRKMLDHIAHEVGLKKRVVQVWFENTRARERK [Q48E], the abundance fitness was 0.404 ± 0.12. RLRTTITPEQLEILYQKYLLDSNPTRKMLDHIAHEVGLKKRVVAVWFQNTRARERK [Q44A] gave an abundance fitness of 0 ± 0.082. With RLRTTITPEQLEILYQKYLLDSNPTRKMLDHIAHEVGLKKRVVWVWFQNTRARERK [Q44W] the abundance fitness was -0.669 ± 0.14. Work on RLRTTITPEQLEILYQKYLLDSNPTRKMLDHIAHEVGLKKRVVHVWFQNTRARERK [Q44H] yielded an abundance fitness of -0.038 ± 0.15. RLRTTITPEQLEILYQKYLLDSNPTRKMLDHIAHEVGLKKRVVEVWFQNTRARERK [Q44E] gave an abundance fitness of 0.283 ± 0.098. RLRTTITPEQLEILYQKYLLDSNPTRKMLDHIAHEVGLKKRVVPVWFQNTRARERK [Q44P] showed an abundance fitness of -0.723 ± 0.12. With RLRTTITPEQLEILYQPYLLDSNPTRKMLDHIAHEVGLKKRVVQVWFQNTRARERK [K17P] the abundance fitness was -1.05 ± 0.21. RLRTTITPEQLEILYQKYLHDSNPTRKMLDHIAHEVGLKKRVVQVWFQNTRARERK [L20H] showed an abundance fitness of -0.286 ± 0.13. For RLRTTIMPEQLEILYQKYLLDSNPTRKMLDHIAHEVGLKKRVVQVWFQNTRARERK [T7M], the abundance fitness was -0.228 ± 0.15. For RLRTTISPEQLEILYQKYLLDSNPTRKMLDHIAHEVGLKKRVVQVWFQNTRARERK [T7S], the abundance fitness was -0.169 ± 0.092. Variant RLRTTIEPEQLEILYQKYLLDSNPTRKMLDHIAHEVGLKKRVVQVWFQNTRARERK [T7E] has an abundance fitness of 0.087 ± 0.096. For RLRTTITPEQLEILYQKYLLDSNPTRKMLDHIPHEVGLKKRVVQVWFQNTRARERK [A33P], the abundance fitness was -0.746 ± 0.085. With RLRTTITPEQLEILYQKYLLDSNPTRKMLDHIGHEVGLKKRVVQVWFQNTRARERK [A33G] the abundance fitness was -0.398 ± 0.086. RLRTTITPEQLEILYQKYLLDSNPTRKMLDHIEHEVGLKKRVVQVWFQNTRARERK [A33E] showed an abundance fitness of -0.759 ± 0.18. For RLRTTITPEQLEILYQKYLLDSNPTRKMLDHISHEVGLKKRVVQVWFQNTRARERK [A33S], the abundance fitness was -0.06 ± 0.074. Work on RLRTTITPEQLEILYQKYLLDSNPHRKMLDHIAHEVGLKKRVVQVWFQNTRARERK [T25H] yielded an abundance fitness of -0.448 ± 0.19. For RLRTTITPEQLEILYQKYLLDSNPERKMLDHIAHEVGLKKRVVQVWFQNTRARERK [T25E], the abundance fitness was -0.081 ± 0.099. Variant RTRTTITPEQLEILYQKYLLDSNPTRKMLDHIAHEVGLKKRVVQVWFQNTRARERK [L2T] has an abundance fitness of 0.25 ± 0.12. With RDRTTITPEQLEILYQKYLLDSNPTRKMLDHIAHEVGLKKRVVQVWFQNTRARERK [L2D] the abundance fitness was 0.655 ± 0.14. With RQRTTITPEQLEILYQKYLLDSNPTRKMLDHIAHEVGLKKRVVQVWFQNTRARERK [L2Q] the abundance fitness was 0.102 ± 0.21.
